Source: paper PMC7360120

Molecular target: HA-ELKS1αB

“GST-Rab6B Q72L (from UniProt P61294 1-208) (natural protein)” was tested. Which fraction of synapses with mito-Rab6-tagged mitochondria in neurons co-expressing mito-Rab6BQL and HA-ELKS1αB, compared to inactive Rab6B (mito-Rab6BTN) or HA-ELKS1^∆955-971 did it give?
Its fraction of synapses with mito-Rab6-tagged mitochondria in neurons co-expressing mito-Rab6BQL and HA-ELKS1αB, compared to inactive Rab6B (mito-Rab6BTN) or HA-ELKS1^∆955-971 is 2 fold.
